Key:
[1] = target: ICAM1 on the surface of tumor cells (human, UniProt P05362 28-532); test: cell-based or functional assay
Avi-human CD38 ECD [2] = target: T1, Avi-human CD38 ECD (human, UniProt P28907 43-300); test: ELISA on human CD38 ECD; class C = EC50 >0.5 nM (table legend)
T1 construct: eluted as a monomer; also called hCD38; huCD38

Avi-human CD38 ECD [3] = target: T1, Avi-human CD38 ECD; test: ELISA on human CD38 ECD; class A = EC50 0.02 nM - 0.1 nM (table legend)

ICAM1 on the surface of tumor cells, sequence (P05362 28-532): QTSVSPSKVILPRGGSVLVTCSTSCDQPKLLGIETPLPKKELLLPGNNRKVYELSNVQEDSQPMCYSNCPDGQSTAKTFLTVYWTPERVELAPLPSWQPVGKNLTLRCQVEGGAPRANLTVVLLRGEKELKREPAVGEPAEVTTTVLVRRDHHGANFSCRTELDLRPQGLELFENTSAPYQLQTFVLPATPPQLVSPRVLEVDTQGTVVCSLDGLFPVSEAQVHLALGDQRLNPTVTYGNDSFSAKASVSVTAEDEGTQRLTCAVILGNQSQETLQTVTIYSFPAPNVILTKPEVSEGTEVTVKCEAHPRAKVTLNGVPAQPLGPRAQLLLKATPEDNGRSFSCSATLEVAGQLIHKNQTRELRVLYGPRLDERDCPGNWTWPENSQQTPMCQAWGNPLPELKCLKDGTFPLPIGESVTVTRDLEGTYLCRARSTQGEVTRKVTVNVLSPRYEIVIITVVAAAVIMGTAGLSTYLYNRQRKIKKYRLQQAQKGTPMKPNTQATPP

Row | Binder | EC50 (Avi-human CD38 ECD [3]) [nM] | also measured
1 | h11F2-6 (antibody, V domains shown) VH: EVQVLESGGGLVQPGGSLRLSCAVSGFSLSSHAMGWVRQAPGKGLEWIGIIGSSDRTYYASWAKGRFTISKDNSKNTVYLQINSPRAEDTAVYYCVRDPYDSYDEGYRLWGQGTLVTVSS VL: DIQMTQSPSTLSASVGDRVTITCQASQSIYRYLSWYQQKPGKAPKFLIYDASKLASGVPSRFSGSGSGTEFTLTISSVQPDDFATYYCQQAYSSGSIDNAFGGGTKVEIK |  | ADCC EC50 on Daudi cells; antibody made in CHO FUT8 -/- (afucosylated) [1]: 0.008 nM; ADCC EC50 on HuNS1 cells; antibody made in CHO FUT8 -/- (afucosylated) [1]: 0.04 nM; ADCC EC50 on NCI-H2291 cells; antibody made in CHO [1]: 0.329 nM; ADCC EC50 on NCI-H2291 cells; antibody made in CHO FUT8 -/- (afucosylated) [1]: 0.019 nM; ADCC EC50 on NCI-H2342 cells; antibody made in CHO [1]: 0.69 nM; ADCC EC50 on NCI-H2342 cells; antibody made in CHO FUT8 -/- (afucosylated) [1]: 0.07 nM; ADCC EC50 on Raji cells; antibody made in CHO FUT8 -/- (afucosylated) [1]: 0.038 nM
2 | h18E4-19 HC E95A (antibody, name in Kabat numbering, V domains shown, Alanine scan variant of h18E4-19; Kabat numbers, not linear positions of the entry) VH: EVQLLESGGGLVQPGGSLRLSCAASGFSFNNYWIIWIRQAPGKGLEWVAAIYSPSGDIKYYADWAKGRFTVSKDNSKNTVYLQMNSLRAEDTAVYYCARALSGSSYEGYFESWGQGTLVTV VL: DIQLTQSPSTLSASVGDRVTITCRSSQSVYGHNWLAWYQQKPGKAPKLLMYRASNLASGVPSRFSGSGSGTEFTLTISSVQPDDFATYYCQGYYSGGSYAFGGGTKVEIK |  | EC50 (Avi-human CD38 ECD [2]): > 0.5 nM
3 | h18E4-19 LC G95A (antibody, V domains shown, Alanine scan variant of h18E4-19; Kabat numbers, not linear positions of the entry) VH: EVQLLESGGGLVQPGGSLRLSCAASGFSFNNYWIIWIRQAPGKGLEWVAAIYSPSGDIKYYADWAKGRFTVSKDNSKNTVYLQMNSLRAEDTAVYYCARELSGSSYEGYFESWGQGTLVTV VL: DIQLTQSPSTLSASVGDRVTITCRSSQSVYGHNWLAWYQQKPGKAPKLLMYRASNLASGVPSRFSGSGSGTEFTLTISSVQPDDFATYYCQGYYSGASYAFGGGTKVEIK | 0.02 to 0.1 | 
4 | h18E4-19 HC S102A (antibody, name in Kabat numbering, V domains shown, Alanine scan variant of h18E4-19; Kabat numbers, not linear positions of the entry) VH: EVQLLESGGGLVQPGGSLRLSCAASGFSFNNYWIIWIRQAPGKGLEWVAAIYSPSGDIKYYADWAKGRFTVSKDNSKNTVYLQMNSLRAEDTAVYYCARELSGSSYEGYFEAWGQGTLVTV VL: DIQLTQSPSTLSASVGDRVTITCRSSQSVYGHNWLAWYQQKPGKAPKLLMYRASNLASGVPSRFSGSGSGTEFTLTISSVQPDDFATYYCQGYYSGGSYAFGGGTKVEIK | 0.02 to 0.1 | 
5 | h18E4-19 HC S97A (antibody, name in Kabat numbering, V domains shown, Alanine scan variant of h18E4-19; Kabat numbers, not linear positions of the entry) VH: EVQLLESGGGLVQPGGSLRLSCAASGFSFNNYWIIWIRQAPGKGLEWVAAIYSPSGDIKYYADWAKGRFTVSKDNSKNTVYLQMNSLRAEDTAVYYCARELAGSSYEGYFESWGQGTLVTV VL: DIQLTQSPSTLSASVGDRVTITCRSSQSVYGHNWLAWYQQKPGKAPKLLMYRASNLASGVPSRFSGSGSGTEFTLTISSVQPDDFATYYCQGYYSGGSYAFGGGTKVEIK | 0.02 to 0.1 | 
6 | h18E4-19 HC F100eA (antibody, name in Kabat numbering, V domains shown, Alanine scan variant of h18E4-19; Kabat numbers, not linear positions of the entry) VH: EVQLLESGGGLVQPGGSLRLSCAASGFSFNNYWIIWIRQAPGKGLEWVAAIYSPSGDIKYYADWAKGRFTVSKDNSKNTVYLQMNSLRAEDTAVYYCARELSGSSYEGYAESWGQGTLVTV VL: DIQLTQSPSTLSASVGDRVTITCRSSQSVYGHNWLAWYQQKPGKAPKLLMYRASNLASGVPSRFSGSGSGTEFTLTISSVQPDDFATYYCQGYYSGGSYAFGGGTKVEIK | 0.02 to 0.1 | 
7 | h18E4-19 HC Y100aA (antibody, name in Kabat numbering, V domains shown, Alanine scan variant of h18E4-19; Kabat numbers, not linear positions of the entry) VH: EVQLLESGGGLVQPGGSLRLSCAASGFSFNNYWIIWIRQAPGKGLEWVAAIYSPSGDIKYYADWAKGRFTVSKDNSKNTVYLQMNSLRAEDTAVYYCARELSGSSAEGYFESWGQGTLVTV VL: DIQLTQSPSTLSASVGDRVTITCRSSQSVYGHNWLAWYQQKPGKAPKLLMYRASNLASGVPSRFSGSGSGTEFTLTISSVQPDDFATYYCQGYYSGGSYAFGGGTKVEIK | 0.02 to 0.1 | 
8 | h18E4-19 LC Y92A (antibody, V domains shown, Alanine scan variant of h18E4-19; Kabat numbers, not linear positions of the entry) VH: EVQLLESGGGLVQPGGSLRLSCAASGFSFNNYWIIWIRQAPGKGLEWVAAIYSPSGDIKYYADWAKGRFTVSKDNSKNTVYLQMNSLRAEDTAVYYCARELSGSSYEGYFESWGQGTLVTV VL: DIQLTQSPSTLSASVGDRVTITCRSSQSVYGHNWLAWYQQKPGKAPKLLMYRASNLASGVPSRFSGSGSGTEFTLTISSVQPDDFATYYCQGYASGGSYAFGGGTKVEIK | 0.02 to 0.1 | 
9 | h18E4-19 HC E101A (antibody, name in Kabat numbering, V domains shown, Alanine scan variant of h18E4-19; Kabat numbers, not linear positions of the entry) VH: EVQLLESGGGLVQPGGSLRLSCAASGFSFNNYWIIWIRQAPGKGLEWVAAIYSPSGDIKYYADWAKGRFTVSKDNSKNTVYLQMNSLRAEDTAVYYCARELSGSSYEGYFASWGQGTLVTV VL: DIQLTQSPSTLSASVGDRVTITCRSSQSVYGHNWLAWYQQKPGKAPKLLMYRASNLASGVPSRFSGSGSGTEFTLTISSVQPDDFATYYCQGYYSGGSYAFGGGTKVEIK | 0.02 to 0.1 | 

Second part, led by results:

Row | EC50 (Avi-human CD38 ECD [3]) [nM] | Binder | also measured
10 | 0.02 to 0.1 | h18E4-19 LC Q89A (antibody, V domains shown, Alanine scan variant of h18E4-19; Kabat numbers, not linear positions of the entry) VH: EVQLLESGGGLVQPGGSLRLSCAASGFSFNNYWIIWIRQAPGKGLEWVAAIYSPSGDIKYYADWAKGRFTVSKDNSKNTVYLQMNSLRAEDTAVYYCARELSGSSYEGYFESWGQGTLVTV VL: DIQLTQSPSTLSASVGDRVTITCRSSQSVYGHNWLAWYQQKPGKAPKLLMYRASNLASGVPSRFSGSGSGTEFTLTISSVQPDDFATYYCAGYYSGGSYAFGGGTKVEIK | 
11 | 0.02 to 0.1 | h18E4-19 HC S99A (antibody, name in Kabat numbering, V domains shown, Alanine scan variant of h18E4-19; Kabat numbers, not linear positions of the entry) VH: EVQLLESGGGLVQPGGSLRLSCAASGFSFNNYWIIWIRQAPGKGLEWVAAIYSPSGDIKYYADWAKGRFTVSKDNSKNTVYLQMNSLRAEDTAVYYCARELSGASYEGYFESWGQGTLVTV VL: DIQLTQSPSTLSASVGDRVTITCRSSQSVYGHNWLAWYQQKPGKAPKLLMYRASNLASGVPSRFSGSGSGTEFTLTISSVQPDDFATYYCQGYYSGGSYAFGGGTKVEIK | 
12 | 0.02 to 0.1 | h18E4-19 LC S95aA (antibody, V domains shown, Alanine scan variant of h18E4-19; Kabat numbers, not linear positions of the entry) VH: EVQLLESGGGLVQPGGSLRLSCAASGFSFNNYWIIWIRQAPGKGLEWVAAIYSPSGDIKYYADWAKGRFTVSKDNSKNTVYLQMNSLRAEDTAVYYCARELSGSSYEGYFESWGQGTLVTV VL: DIQLTQSPSTLSASVGDRVTITCRSSQSVYGHNWLAWYQQKPGKAPKLLMYRASNLASGVPSRFSGSGSGTEFTLTISSVQPDDFATYYCQGYYSGGAYAFGGGTKVEIK | 
13 | 0.02 to 0.1 | h18E4-19 HC S100A (antibody, name in Kabat numbering, V domains shown, Alanine scan variant of h18E4-19; Kabat numbers, not linear positions of the entry) VH: EVQLLESGGGLVQPGGSLRLSCAASGFSFNNYWIIWIRQAPGKGLEWVAAIYSPSGDIKYYADWAKGRFTVSKDNSKNTVYLQMNSLRAEDTAVYYCARELSGSAYEGYFESWGQGTLVTV VL: DIQLTQSPSTLSASVGDRVTITCRSSQSVYGHNWLAWYQQKPGKAPKLLMYRASNLASGVPSRFSGSGSGTEFTLTISSVQPDDFATYYCQGYYSGGSYAFGGGTKVEIK | 
14 | 0.02 to 0.1 | h18E4-19 HC G98A (antibody, V domains shown, Alanine scan variant of h18E4-19; Kabat numbers, not linear positions of the entry) VH: EVQLLESGGGLVQPGGSLRLSCAASGFSFNNYWIIWIRQAPGKGLEWVAAIYSPSGDIKYYADWAKGRFTVSKDNSKNTVYLQMNSLRAEDTAVYYCARELSASSYEGYFESWGQGTLVTVSS VL: DIQLTQSPSTLSASVGDRVTITCRSSQSVYGHNWLAWYQQKPGKAPKLLMYRASNLASGVPSRFSGSGSGTEFTLTISSVQPDDFATYYCQGYYSGGSYAFGGGTKVEIK | 
15 | 0.02 to 0.1 | h18E4-19 HC L96A (antibody, name in Kabat numbering, V domains shown, Alanine scan variant of h18E4-19; Kabat numbers, not linear positions of the entry) VH: EVQLLESGGGLVQPGGSLRLSCAASGFSFNNYWIIWIRQAPGKGLEWVAAIYSPSGDIKYYADWAKGRFTVSKDNSKNTVYLQMNSLRAEDTAVYYCAREASGSSYEGYFESWGQGTLVTV VL: DIQLTQSPSTLSASVGDRVTITCRSSQSVYGHNWLAWYQQKPGKAPKLLMYRASNLASGVPSRFSGSGSGTEFTLTISSVQPDDFATYYCQGYYSGGSYAFGGGTKVEIK | 
